Test results: the domain aggregation screens of Martell et al. (2025)

Experiment: soluble fraction after stress (log2 fold change); higher = more stays soluble; pooled small domains, quantitative proteomics
Details: stress: 75 degC
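Further: 20 min heating vs room temperature control held 20 min.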

| Sequence | soluble fraction (log2) |
| --- | --- |
| HMAPPPPEGYIHRWIRESVMGFDDKKNLSARIREGFELVRAEEYPDYEAPTVMDGKHAGVIANGGLLLARF | -0.201 |
| HMAPQQARAAKTRVKLLDAAATVVRRDGIQAMTLARVAEEAGVSKGGLLHHFGSKEELVTGMLEQ | -0.21 |
| HMAPRASDALTERELDVLRVVADGASVAEAAEMLVVSRETVKKHLGNIYAKLGVHSKMQAVALLREEGV | -0.788 |
| HMAPRKNIRLLRAAQDKAAAEGDHETVDAIRGQIAALIETLPVQYREEYLLQEKGRENGLKLAIENAAK | 0.663 |
| HMAPSLQISLKQAIITAQQQHPGSKALNADFDGARGTPRYVIETLLPTGELRELTIDAQSGQVMEDHPDR | 0.234 |
| HMAPSPEGAAILRESVESVARDQVDRVALTMTARGYTTAEIAAALMVDRSTISRRLYAMRDRYHAQQDNAQ | -0.526 |
| HMAPSVNEVAWAQKIIDAHAEAAAAGKGLVVVDGKLIENLHVEEAKQLLSLSDAIAKNDASNG | 0.0645 |
| HMAPTGTDRQTPHTRDELYLVLSGTGTFVNGDARHPFGPGDALFVPAGAEHRFEDFSDDFRTWVVFYGAEG | -0.163 |
| HMAPVVAILTRQLPLPQAQQLAGQTALVRVVKGGPGNEAELEFAGQNIQVKLPPGRQLTAGEMVTVAFALS | -0.762 |
| HMAQASEPMLALIRLKWWEEQINSPVKGDSLPLLSQLNSHISAGYLSRSQVTSLIQRWQDYA | -0.983 |
| HMAQFNELLFELRQDRKMTQEDLAKVLFVTSGTISNYENGVHLPDIEKLISLADFFGVTTDYLLG | -0.189 |
| HMAQLKYEQIKSYLQAEAVKPESATRMPTVRELMRRFNVSLVTVNRALSELEHAKVIVRRQGAGIVAAQ | -0.662 |
| HMAQLPADMSRVKSADVSDAQLREFVQKAQASGQTETQLFREFSRRGMPTNEINILRSRMVGLQNN | 0.152 |
| HMAQLPPTATARATSDVSGLTASAALRTLLEQGFVPQIHGSGKVSRQHPPAGTLLEPGSTIQLFLEPS | 0.261 |
| HMAQLSDMLTYLRKRKGLSQQELANTLKISRSAIGMYETGKREPDLETLEVFADFYNVDMNTLTGKA | -0.245 |
| HMAQNILPGQKNAIKSLATSAGFSQQELDSYLSQNYGKTLNNLSQKEGASLISGLQDGSIKKP | 0.988 |
| HMAQPIPSGSDIREAREAAGMNLRDFARMVGGGAIGTWSHYETGKPIRVKSISPEVWQRVRDFILQHGK | -0.676 |
| HMAQRAADEARTHEILGLLRQARAALDHGGTARAARLRASIAEKLPAAPALPAWFARQLEQVDSQLAELQD | -0.768 |
| HMAQRFDLGDKLNPQSSEFEYLGTSSRTGVSTYRYKNVPTQLFFGRQIGDIVVGVRRGMITLTIYNL | 0.0868 |
| HMAQSTALVNLAQAEINKRGLTQTEVQARLSEEGINVNSISPAEYPKYQKQILSILDQMQKEKQLSKEV | 0.287 |
| HMAQVDAVQQVLQAFPALRSGQSQHLSQVVAALRQRGILTVGTKTTAWFAQWASVFQLLPLQVPNRIRYQS | 0.0672 |
| HMARGRETILLVEDEPAVRGLVHATLRLHGYTVLEARHGIEALLTSTKFVGPIHLLLTDVVMPQMS | 0.0984 |
| HMARHIHFEVHVQQAGRWSIHAQFGAGQREKAIEEAKKIEKTPGFDSVKVVKETYDSDLGNHQDTTIYRGP | -1.18 |
| HMARKTIFHSLLGELEQRIGRLPAGTILPAEQALADEYGVSKPTLRRALAELAEHGLITKENGIGSVVI | -0.577 |
| HMARLAGVDLPREKRIEIGLTYIYGIGLARSQEILKKAGINPDIRVKDLTDEQEQAIRNAMDGYIVEGDL | -1 |
| HMARLQEVVVRVPVEDGQTLAAIYREAEVIERADEGTGVLLTVRIPAPLLGRLRRLEGVHVQP | -1.07 |

| Sequence | soluble fraction (log2) |
| --- | --- |
| HMARRLELEDIPVDEVLFTASRNLVDAIEVMDPSRQAPMIQPWLKQALEWAVGALGFSKEDAVATLTSD | 0.157 |
| HMASAAHYEGVKTEGESDNDVITRVLTATGVTAEKDDIFVVKSLIADGKYSYTAYVYDGSVWAAMD | -0.236 |
| HMASALDVALNDFAEMRKKMRKPLTDRALALTLSELEKLAPGNDEKKIAILNQSIQRGWQGVFPLK | -0.336 |
| HMASDEVPGAGFKWREDVLLRVMEANGIDKSNRDDFVRHAVNFDDDDNNYLKKAEIEAAAAAWVESQSPA | -0.696 |
| HMASDLPTVTIMGKTFYTYVAKKGESFFGIANRFGWDPELLVKTNRELETPLDKGALIYYPVPKKPK | -1.32 |
| HMASIATLTVKALGGASDVVIRDKDGRIIWADRLPAGQSHRVFGHAPFNVAASHASRVQLSLLGKDVGRV | -1.37 |
| HMASISDRIRLLRAESHMTQEEFGRIFGISKPTVSFYEHGKSVPNDQIKTAIARYFGVSVDYLLGVTD | -2.14 |
| HMASKTGTITATSLNVRSGAATTYSILGTLSNGKTVTIYEESNGWYKINYNGGYGWVSKTYVSTG | -1.53 |
| HMASLASVAYETLRQALDNFQYVPGDRFSESEVGQQLGMSRTPVREALVRLQREGYISVLPKMGWVVNQ | -1.86 |
| HMASMHDGVAARLRAMVFERELAPGEFIDERRLAQQWQISRTPLREALKVLAAEGLVELVPRRGARVV | -1.12 |
| HMASPKEALWRSLAEEPDTWWDNRERKSQPGANPRSPDFKHKESGEALWIESRDTPTWVLETL | -0.196 |
| HMASQEESVATYIQDYYRNPKTGESMVSDDMVEEFYKTHPEWEDQADGSKEGMEAVLDNFNEFFEINYG | 0.333 |
| HMASSRPLAEGDFVRLRAGGATGRIESIKGQKATVQMGGLKVHAPLRDLLPVAEPIKQVSTASNT | -0.00256 |
| HMASVAKHIRRLRTERHMTQGDLAEKLFVTRQTVSAWETGKAQPDLETLERIAVVLGVEVTELIYGAP | -0.707 |
| HMASVVEQVQVSNDISLFRQQNSPYWQARFKVAGKWYTRTTKRTEQTQAAFRAAELRSEVQTKISQGIPLR | -2.56 |
| HMATESYYVLKADVPAKTLVTQEMVEEIKVSKGGAPVNSIKIDNIKEKGVYTSIPLLKGDVLSASNTG | 0.131 |
| HMATKVSSGATVRDVADLLGLSSAELIKKLMMMGEMATLTQTLTDESIKSIADEYDRKIEIVSAAE | -0.0786 |
| HMATNVLEISTRNKNILIQDSLNLVESFYSKSDNQYWYKLVFKTKDDLNKFLQEVSEDENTITYKTSSI | -0.359 |
| HMATPEINNLGRLRNAINQSNVNWHQIIKRLQNEYPNNWRQILIAIDRHDLLFRYDVENYIKYG | -2.31 |
| HMATPIAGTKYTLNNTPVYGTEKGPSIGKRSGIYYTWDATVRNGRIRMTNSPARVGVPWQVSFWVEVNKL | -2.9 |
| HMATPRLAIVPQSAAGRRLDAVLAELFPEYSRSRLSAWIKTGDVMVDGAAPRGRDPVRGGEEITLTAVQ | -0.183 |
| HMATPTEHQLQAQARAVVEKAERLLDRASADDREDIINLIEKITDALAAEDFTAVKAPLAELSDILFYLE | -0.104 |
| HMATPTMEDYIEVIYSLVKTKGYARSADIAEKLEVYPSTVTKMLKKLDAEGYIVYEKYRGIALTDIGKKMG | -2.17 |
| HMATSNGEFVIPDGGLQFEELERSLLMQALKKSGGSQTGAARLLGLSRDTLRYRLEKFGIDAAAVRE | -0.39 |
| HMATVTVPNLKGMTPSGAESALAELNLKGAVGDSVESNDVENGKVASQDQAAGSDAKEGDTITYHLSS | 0.235 |
| HMATYETEVISGVNLRSAPNTSASVYRLLSKGEDIHVIQKVNDYWLKVQTKDGKIGYISASSKYTNYIA | -1.52 |

| Sequence | soluble fraction (log2) |
| --- | --- |
| HMAVEETFTITWLDRDGTVLEVDENVLKGTMPSFDGHIPPHDGLEFKGWDPEVVPVEGDATYTATYKA | 0.508 |
| HMAVENTGLSKRELEILQMMARGMSNQEIGDALFISLSTVKTHVASIFSKLQAVRRTQAVGIAKSLKII | -2.91 |
| HMAVFSKKQIFDTAFALFESKGLEAITARNLGKALSSSPAPIYAHYSSITELKNELISVAKDR | -3.06 |
| HMAVGDMISKLRTAANMSQEQFAELFGVTRQSVQKWENSFSVPELEKLIKISKYFDVSLDALVLRSDARVT | -2.5 |
| HMAVLFFVKRGERILGPTRLADLFQHAASGRLRANDLVGESPKGPWLPARQLDELEDAWASSRDATEAAAA | -0.817 |
| HMAVNQEFKNTINRIKYEYSLNQSQIADRLGVKKTYLSDMINGRVPYNETMNKKVNDVFPLPP | -0.169 |
| HMAVPTHVEFPVVGLQRSGITSLEQAIATVPGVSKAVVNVSDNRIFVDYDPTRSKVSDLLEVVRGAGFTP | -0.043 |
| HMAVQAESDIIKRAALLRNLGNTSMQLKNIDQAIDFYKQGIKLHPEDAELKYNLSQALRQKSQSNN | 0.055 |
| HMAVQEDAGLAREDLPPEVQGLLQEREAARAAKDWGKSDALRRQLQDLGYAIKDTAQGMEIKRT | 0.817 |
| HMAVRNTKQKQLVLSLLKNSGRPMTAGEIYRLAVQQYPNIAKSTVYRNLENLVSRGEVSQGMHQNGESFYS | -0.697 |
| HMAVSPEEQKKRIIELFRNRNEVSFKEIFDLPTKGHFVITLLAVLDLARQQIVIMEQLENEGIIKFTKGA | 0.134 |
| HMAVSSHAVKQRIRSLIQAEDPAAPLSDEALRLALSALGVDVSRRVIAKYRAELNIPSSSQRKK | -0.823 |
| HMAVSVPDVMGLTYEEAYNKITAEGLLVNRLESYTGLVEKGRVISQLPVGGEPAAKGSTVNVNVSL | 0.466 |
| HMAVTFPYTAYATDAVRLRERPSSSADVLAVIRKGDAVLVTGTDGNYAIVDYEGKRGYVVSSFIAT | -0.522 |
| HMAVWRIKVNYIPGYGVNIWSSYKNGHFTGKRAMHGETYEVLETKKDQDGNTWYKLDDHQWIEGRYAINAK | -2.45 |
| HMAYMETIERVEALAPGTKFNLKALFGTDWTQSRGTKLTLGKTFYEMVESGYVKTAKVLGKDSSNIMQYER | 0.0793 |
| HMAYSEEERNLIRSRLKDVAAALFKEKGIRDTNIDEIYTPVGISKTFFYSFFPSKAVLAIAIMK | -0.248 |
| HMAYVDWYENKQPTHEEAFKKLLGRIHPGAIVLLHSTSKTNGEILDELLTKWEEMGYRFGTLDELTGN | -1.58 |
| HMDAATDAIKAEVRALLEMANAQGIDTESIMLEAHEQTRNATEQDYYEAAKSALEAAIAGSNRDR | 0.435 |
| HMDADGEPIKLDQIGISHLSFTVADVKSLGEELVAKGVKLAAPMEAFTSPEGRISSIFVYDPDGILLQFDD | 0.136 |
| HMDADRLSPREREMLQFIARGQSNKEIARALELAESTVKIHVQNMLRKLNLSSRVQAAVFAVENGLG | -1.59 |
| HMDAGLAEIIRSFEDNLGGFPPAAREDLLGWREIFTDDLILLAIKKAALAGVRKWSYVNGILKVWKNEGVR | -2.23 |
| HMDAHYMEMKGKTGTAFTMLRPAGKIDIEGQIFDAVAEAGFIEKGEAIRVVKYENAQLIVRK | -0.446 |
| HMDAIAYLGSRLKEIRLKSGLSLREIARQLDVSPSFISQIENGKSQPSVATLYAFAKLLNVPVDVLFQPS | -2.59 |
